Substrate: CN(Cc1cnc2nc(N)nc(N)c2n1)c1ccc(C(=O)N[C@@H](CCC(=O)O)C(=O)O)cc1
Test: TP_TRANSPORTER: uptake (vesicle) in membrane vesicle from ABCG2-expressing HEK-293 cells
Type: functional, cell membranes, HEK293

B1: Broad substrate specificity ATP-binding cassette transporter ABCG2 (Homo sapiens) (protein)
chain: MSSSNVEVFIPVSQGNTNGFPATASNDLKAFTEGAVLSFHNICYRVKLKSGFLPCRKPVEKEILSNINGIMKPGLNAILGPTGGGKSSLLDVLAARKDPSGLSGDVLINGAPRPANFKCNSGYVVQDDVVMGTLTVRENLQFSAALRLATTMTNHEKNERINRVIQELGLDKVADSKVGTQFIRGVSGGERKRTSIGMELITDPSILFLDEPTTGLDSSTANAVLLLLKRMSKQGRTIIFSIHQPRYSIFKLFDSLTLLASGRLMFHGPAQEALGYFESAGYHCEAYNNPADFFLDIINGDSTAVALNREEDFKATEIIEPSKQDKPLIEKLAEIYVNSSFYKETKAELHQLSGGEKKKKITVFKEISYTTSFCHQLRWVSKRSFKNLLGNPQASIAQIIVTVVLGLVIGAIYFGLKNDSTGIQNRAGVLFFLTTNQCFSSVSAVELFVVEKKLFIHEYISGYYRVSSYFLGKLLSDLLPMRMLPSIIFTCIVYFMLGLKPKADAFFVMMFTLMMVAYSASSMALAIAAGQSVVSVATLLMTICFVFMMIFSGLLVNLTTIASWLSWLQYFSIPRYGFTALQHNEFLGQNFCPGLNATGNNPCNYATCTGEEYLVKQGIDLSPWGLWKNHVALACMIVIFLTIAYLKLLFLKKYS
With B1 the Km was 5.7 mM.

Reference: ChEMBL document CHEMBL2073902, “A functional study on polymorphism of the ATP-binding cassette transporter ABCG2: critical role of arginine-482 in methotrexate transport” (Biochem J, 2003)
